Data reported in patent US20230331852A1 (OSE IMMUNOTHERAPEUTICS, published 2023).

What was measured:
[1] = biological target: T1, human CLEC-1A expressed on the cell membrane (human, UniProt Q8NC01 1-280); assay: flow cytometry on U266 cells
T1 construct: Endogenous on human U266 myeloma cells, on monocyte-derived TGFb-DC and macrophages; on CHO cells after transduction with a Clec-1 expressing lentivirus; also called U266 CLEC1; CLEC-1A on U266 cells
T1 sequence: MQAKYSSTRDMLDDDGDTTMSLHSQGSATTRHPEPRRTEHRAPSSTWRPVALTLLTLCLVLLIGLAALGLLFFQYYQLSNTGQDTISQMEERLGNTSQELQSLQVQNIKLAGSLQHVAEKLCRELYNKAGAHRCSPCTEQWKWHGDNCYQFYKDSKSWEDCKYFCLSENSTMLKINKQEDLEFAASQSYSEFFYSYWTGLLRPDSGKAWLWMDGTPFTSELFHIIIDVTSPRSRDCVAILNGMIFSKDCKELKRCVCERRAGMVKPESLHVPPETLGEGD
Experimental: Method: To measure binding of anti-CLEC1 on human U266 cell lines (pre-blocked with Fcblock to blocking FcR), antibodies at different concentrations were incubated for 30 min at 4° C., and washed before stained 30 min at 4° C. with PE-labelled anti-human IgG (Biolegend; reference 409304). Samples were analyzed on Cytoflex cytofluorometer (Beckman Coulter). The MFI of anti-CLEC1 was compared between all anti-CLEC1 antibodies and percentage of stained cells was analysed in all conditions.

[2] = biological target: T1, human CLEC-1A expressed on the cell …; assay: flow cytometry on CHO-Clec-1 cells (from FIGURE 21)
Experimental: To measure binding of anti-clec on CHO-Clec-1 cells, human Fc Receptor Binding Inhibitor diluted at 1/200 (BD pharmingen; USA; reference 564220) was first added for 30 min at room-temperature to block human Fc receptors on CHO-Clec-1 cells to reduce background. Then, antibodies were incubated for 30 min at 4° C., and washed before stained 15 min at 4° C. with PE-labelled anti-human IgG Fc (Biolegend; USA; reference 409303). Samples were analyzed on citoflex (Beckman coulter)

[3] = biological target: T2, recombinant human CLEC-1 protein with His Tag (#1704-CL R&D Systems) (human, UniProt Q8NC01 74-280); assay: Blitz biolayer interferometry, His-CLEC1 on Ni-NTA biosensor, antibody at 20 ug/mL
T2 construct: Bought protein; also called His-CLEC1; His Clec-1; not shown: His tag
T2 sequence: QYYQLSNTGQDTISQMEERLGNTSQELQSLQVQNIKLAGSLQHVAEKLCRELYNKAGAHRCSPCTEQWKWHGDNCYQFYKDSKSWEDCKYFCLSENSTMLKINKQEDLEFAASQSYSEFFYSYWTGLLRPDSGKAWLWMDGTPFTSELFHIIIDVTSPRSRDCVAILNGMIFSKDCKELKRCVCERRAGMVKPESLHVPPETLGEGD

[4] = biological target: T3, Fc-CLEC1 labelled with Alexa Fluor 488 (human, Alexa Fluor 488 label (sites not given)); assay: FACS competition: blocks Fc-CLEC1-A488 (10 nM) binding to CLEC-1 ligand on permeabilised Raji cells; IC50 median
T3 construct: also called Fc-CLEC1-A488; Alexa488-Fc-Clec-1
T3 chain: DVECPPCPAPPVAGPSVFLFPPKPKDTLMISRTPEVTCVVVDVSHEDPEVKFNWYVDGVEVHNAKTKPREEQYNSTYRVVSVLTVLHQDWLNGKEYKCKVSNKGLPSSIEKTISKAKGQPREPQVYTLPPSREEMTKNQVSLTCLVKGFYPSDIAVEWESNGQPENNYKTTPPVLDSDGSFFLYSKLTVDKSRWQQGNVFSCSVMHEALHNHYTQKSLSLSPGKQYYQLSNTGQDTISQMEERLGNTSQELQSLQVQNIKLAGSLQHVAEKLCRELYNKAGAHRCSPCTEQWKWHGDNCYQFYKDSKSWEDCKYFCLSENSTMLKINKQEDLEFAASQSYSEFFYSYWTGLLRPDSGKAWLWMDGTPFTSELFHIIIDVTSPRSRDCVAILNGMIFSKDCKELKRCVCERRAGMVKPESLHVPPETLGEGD
Experimental: To measure competition, purified anti-Clec antibodies at different concentrations were pre-incubated in Perm Wash Buffer with Alexa488-Fc-Clec-1 for 15 min at room temperature. Pre-incubated mixes were then incubated on permeabilized and Fc-blocked Raji cells for 30 min on ice. Binding on cells were then fixed by PFA 2% in cold PBS for 10 min on ice and analyzed on CytoFlex cytofluorometer (Beckman Coulter France, Villepinte).
Methods. To measure competition on permeabilised Raji (CytoFix/cytoperm kit, BD Biosciences) which expressed CLEC1 ligand, Fc-CLEC1-labelled A488 which bound specifically to permeabilised Raji was used. To measure competition, Fc-CLEC1 labelled A488 at 10 nM or 20 nM was mixed with mouse anti-hCLEC1 at different concentrations for 15 min at RT then added on these cells for 30 min at 4° C. […] To measure competition on PMBC, we used human PBMC pre-treated by UV for 18 h to obtain apoptotic PBMC, which expressed CLEC1 ligand. Fc-CLEC1-labelled A488 bound specifically apoptotic UV-treated PBMC. To measure competition, Fc-CLEC1 labelled A488 at 10 nM was mixed with mouse anti-hCLEC1 at different concentrations for 15 min at RT then added on these cells for 30 min at 4° C.

B1: chimeric anti-CLEC-1A antibody 14H9 (antibody, human IgG4 S228P, kappa, V domains shown)
VH: QVQLKESGPGLVAPSQSLSITCTISGFSLTTYGIHWVRQPPGKGLEWLVVIWSDGSTIYNSALKSRLSISKDNSKSQVFLKMNSLQTDDTAIYYCARHGGYYNYFDYWGQGTTLTVSS
VL: DIQMNQSPSSLSASLGDTITITCHASQNINVWLSWYQQKPGNIPKLLIYKASNLHTGVPSRFSGSGSGTTFTLTIDSLQPEDIATYYCQQGQSYWTFGGGTKLEIKR
notes: also called 14H9chim; 14H9-VHwt-FcG4m / 14H9-VLwt-CLhk
With B1 the EC50 [1] was 0.113 µg/mL, the EC50 [2] was 0.895 µg/mL and the Kd [3] was 15.9 nM. It also gave a koff [3] of 0.00124 s⁻¹, a kon [3] of 78000 M⁻¹ s⁻¹ and an IC50 [4] of 3.9 nM.
